assay: protease stability score; higher = more stable; yeast display proteolysis, trypsin and chymotrypsin;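 note: log10 excess protease needed over predicted unfolded state with 0 meaning unfolded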

Sequence	protease stability score
DEHRQLEEVLSQIQDALRTNNPDDWADQADENAEFNIGDKSFSGREKVREYAETHMKDADHVSMDVRRVDVRNGRARVSARITAKVNGETKDVTYDMVFKFHNGQAKLVQMNES	0.996
DEHRRAEEAAKRAMEIWKTGNERDAEDLADKNVSIDYGDKKYHGRHQIIKFFQELREDVDHVDLKVNDMDVKPGRAVANLRYVLNNDGRNRHDQHRMTLKLEGDKVYLKKIQQG	-0.108
DEHRVQTHAEEFMKLLQRGDEKSLADLMDPNASVKIGDKVYHGREQIRHAMRELRERVDHIHVKDIQAQGNHINVDFVLNVNGKHQKYELHVDFSNGRVKSLSMQTS	1.69
DEHSDAKRVLEELSKAMENGDEQRVEDQLDENVRINVGENHYHGREHARLWFKQIVDHVDHVRDSMEDYRNQGENFVYVMSVVYQSNGQEKSIRIVYVMKNHNGTVRMVNVHEG	1.02
DEHSDERRLQTAMHALEQNDPDEIKRQMDKDASARYGEKDVTGRDNAKKAASDFKKKVDHVEIKHYDIQGDKLHAKAKVNINGQHIEIIMVLVAHNGHVQRLQVDHG	0.227
DEHSIAEQLAHQFIRAQESGDPDQVDRLADENVRVQIGDKQVKGRDVVRRTMQTWRDRSDHITARLRDVSVRNGQINLLIELDYRQNGQTQHHTLVIVAEVHNGQVRMVQIEIR	-0.221
DEHTEKKRADEIKHAMRENDEKKLNDQMPPDVRMDVGDKQLHGRDEVIRHLQTQLRHADHVEIKHVEVTNGRVSIDAVFDVNGTRKRQVVVFVFHNGRAKEIHIEDK	0.861
DEHTERTLSRLVKRNDEKTMADRADENARAEYGDTTYHGKEEFKKWVNKMEERVDHRDLKEIRVHGNKIKVKMDQEVNGRRVEMEFEAHYHNGRLKFEVMKVRDEEQKEQLKQQQT	-0.09
DEHTSAHNFIEHEWKVFSTNDKKSMKELIDKNVKIDVGDKQVNGREEAARQEVETAKRVDHVDVKLQHLSVHNGRIKAQFRRVLRVDGQDNDEVLRFVIQLNNGNAQAKDKHET	0.115
DEHVEHLVHEIMDALRTNDPDRLRQLMDPNAHAQIGDKQLHGRRTMVDHWQDTLEEIRVSIDVKSFSVKNGRADMTAKVEREDNGKPDDRTADIHIEFHNGKAVRIDVKYKG	0.275
DEHVEKRVDEWWKALRQNNPDEANKNMDPNAKLHIGDKTVHGREEAKRQIENRFKEMRFSYKVRHLTAENGEVEIEATFKVEHNGQPRSRSMRMSINVHNGRIVDIQVDIDPRDQQKFRK	0.041
DEHVIKNFLRVVRTNNEDSFVKMADKDAEITIGDKRYHGREDVHKAAKQRKDAFDEVSIVDYRIDGDKIKVRQSATVNGKKLDFEYTMVLHNGRVRTLDMKARDEEMERRLREIID	0.023
DEHVKETFHSFLHAQTTGDPDKMHKLFDKDARVRYGDKVYHGRETLMRIFHKLRRNIRVDVKFEDIKVDNGKLHAEADMTINHDGKPRQKKVIIELVLHNGKIKQFNQELRG	0.723
DEHVLELAKELFDALSFGSPEDVHRNADKNARFRIGDTEIKGMEQYVETVHKIKRELRLSITVKSMTAHNGDADIKADAVFNHNGTPRRVKIEVTMHVHNGKAVSVDIQFRK	0.848
DEHVLHELERAFRDNDFERLQEQFDENARVEIGDKTYHGKNQVQQAMNDFKTAYDHYQLKTFDIHGEKVFADVKATVNGHDVEFEWEMTASNGRIKKLHIQARDEEVKEQLKRALS	0.109
DEHVLRQVEEWLHNVQTGDEDRLIELVDPNARVEIGDKVIHGMHRMARDLRRKRENMDINIRDYRVQVRGDKARVDIEEQVHHNGRPNSRRFEIQVDADNGRVKQIKWQSES	0.125
DEHVNKLAHRLLEAIEEGNPEMFKELADEDVHFQVGDKSYHGMEDYANSIVEKLRQMHFEIKSYSFRNEPGRATLDLRVQMEHDGQPRESKNTVDVKAKNGRVKRVKFREKR	0.155
DEHVQQALERYWDAVTTNNPEQAVNNVDPNVEIVVGDKTLTGREDVHKHIKDVKDKQNVEIKSMQLRVHNGRVRARFKFEVNHNGEPTTDVVVVEAEVKNGKIQRVEARRDK	0.899
DEHVSRNFENMLRAIKSGNEEEIRELIDKNVRVQVGDKEIHGREEAVKDFKRRHEEIRFNLEVKRIEVRGNKVDVDAEASMTVNGKPYEWHVNIEVRARNGRIKYLNYRVPEEQVKKVES	0.177
DEHVSRNLLRVLKLMHKGNFEEVVNNMDPNARIKVGDKEVHGREKEQTKNRKKEKHMELKVDDYRFRDNNGQVEAEVDQKFTHDGQPRSERFKFRVEAHNGRIKKQSQKEDR	0.007
DEKAKDLFSKVMEAIRTGDEQKIRDNADPNVSVRYGDRNLTGREKVAETNYKIKRHMRIKIDHVRMEVHNGEAEVNVKRVITINGRPTRDTYRLIVVAQGDKLKSVVWKFSEEQRKRLEQ	0.411
DEKAKHMVERFFTALTTGDEQKLRDNVDPNAKFHYGDKRISGMEDNARTLVEEQKEIRFQYDRMHLDAKGDTIDVKLKYIADVNGKPIDVHVDVKFQFQNGRVQSISERIDPRVEKEMHS	0.162
DEKALEFIRKFEEVMKKGDHDTLKEMMDPNARFQYGDKTVHGREHAADWAKRVRDQMRVRIISVKYTARGNKATIQVRNQVNFNGRPLHDHFEVSFDMHNGKIKHASRTLSEEQRQRLEQ	0.062
DEKALENLRRVNDARKTNDEDRIKKLLDKDARVQVGDRQIKGRENVSDTLRKLEEHMRIEIKDYRVDVQNGRAKLEVHWQFEVNGKPRKVTYDWEAEANNGKIQTMHAQFTEEDKRKRKQ	-0.039
DEKALNHANKMLEAYETGNEKQVADQVDKDVRVEIGDKFYHGRENLRERMKKLMKEARFRITVKSVKVQGDQAKIDAEVTHTHNGQPRKRHMSMTVDVQGDKIKQVHVQYHG	0.523

Sequence	protease stability score
DEKALQLLQRIMEAWQKGDPQQVVDNIDKDARIHIGDKHLHGREDARRVVEQEMTEARLSFDVKHVSVQGDKVKVSFHAQLDTNGRPKTYRASATMNASNGKAKQMDVKEDK	-0.232
DEKALRQFEKFMEAIKNGDEEKVVQLVDPNATVRYGDKKVEGREQIKDQMKKLHEEMRIQVNSVDVEDHNGRAHVRIDVIQEHNGTPDRAQLRANMSASNGRIKDLEFTKTK	-0.148
DEKALRSAEEWVRQLNENNEDTLMKLADPNAEFSIGDKTVHGREQLREWIKKTLDKMHVHVKDVKYTDSGDKAQIDIDRVNEHNGRPDEDNVEMTMHLDNGTIHSVDVRKKS	-0.303
DEKALRVAEEAIKAVQTGDPKKFATMADENARVRIGDKEVKGRENQVQLMKDWKHHMRWEQDVKSVTANGDKVEVKFEQVSETNGKPDHDTWNVHFTAQNGEVKSMTMTSNK	-0.504
DEKAMDKVRKVKEIEDEGDSDEFNKMFDPNARFNVGDKSVHGMETYVDQLSKELKRLKRSVRIKSMHAEGNRVDMTVKYEVDVNGRPYRAQVHIIYTFHNGHFSHVTYRLDPQSQREFQK	0.017
DEKANTQAKRLLDVMNSGDEEKILRQMDEDVEVVIGDTKVKGREDIRRWMQKVLKELRVVYDLKHLRAHNGKIDIKAKMHNNHNGQPNSNDVIIIAKIHNGRFKHFEVHTQS	0.804
DEKAQDILKEIANAIRTNNPSQLKNLLDPNAKVKIGDKEFHGMDQLQEDVQRKKEKMRVDFDVRRVEVQGETVHARARVVIHHNGKPATMTYSMIVHIKNGRVRELQVNISETDKEKQKS	1.62
DEKAQTRVQDYLRALQNGDHKRLREYMDENVHLRVGDKEVHGRTTAANEIVKEVRNQEMSMSIKRVRASENHVQMEVVVQVEHNGKPREFSFQLNFKLENGQAKEIKYKIDPTVLKNIRK	0.507
DEKARKILKKMMHALEKGDEDKVRHLLDPNVKVRIGDKDITGREEVARNIFKTLQSMRVKIDRFHVEAKGDKVRAHQTAKAQHNGQPRRYQATVTARIHNGHFQRIDIQVDK	0.944
DEKDAEKVMRELAKAAVNGNYKKAVQLVKEDVQVEYMDQRTHGKEKLKEMLKKFTDLGAEVEYKEVHVKGDTVTVKVEAKMDGKKVKFKVQYVVTDHRLDKVTVKYSEEAYKVIKHG	0.525
DEKDAREWVKDREQNDFDQISRMMDENVKLEYGNKEVHGRERVNTELKKEEETADHVSIDRVEVEEGRAVIDAVVRFNGKDFKMVVTVSMENGKVKYIRDRFTDEQLEEDFVKQFN	0.728
DEKDEAVKLLEHLMEALRRGDEDHARSLADPNVRADIGDRDYSGRNKVAQEWIRRATQADHLELRIRDVRVDGNEVTLEAELSMKVNGETHSDTVHFQFEKHNGRVVLVHVQFK	1.56
DEKDETVVRKWLEAQHTGNPEEAKHQVDKNVDIRVGDHKVTGRHQIMHNLEQRKKSARFELQLTHLSASNGKVTIQIDVRINYNGRPFTDTLHATAKIKNGQLHSFSVDVDEEYLKKVKS	-0.272
DEKDHARHLVKRLLHAIRTGNPDEAMRLAPPNVRVSYGDTQIHGREQFHKWVKTIRDTVDRQRFTIVNVTVHNGQANVSIRYRLNHNGKDDKNEMTARFVEHNGQLKLVSMSRS	0.522
DEKDHENVARNLVTAIVQGDPDRFKELLDKNVKFKYGETDVKGKDNAERVMKDFIKEADQVRVQTLSFHGEHIVINMVADVNGEEQRFQIRAKVHNGRVKEMVWHSR	1.5
DEKDKARKLNDRVREVMETGDPRKFTELADPNARYIIGDKEFHGTENITKYAKTLRDQVDHVDVKVDHVNVQGNKVVADMKFTAEKNGSRLHYRMIVVAVIQGDNVNAQQVHFK	1.18
DEKDKARRMAETIDKLAERNDFEELAKNADPDAKVTVGDKTFHGEENLVKHLQEERKRIDQVRIEVKDVKVQGDEIRINAKYEATHNGRRVDQQVRVIVEVHNGRLVISEMQYE	0.979
DEKDKATKMMETIKQAWDRNNPQQVASQFDKDAHIRVGDKMIHGHEQLKEFVQDVLDTYDHIKLTVTSVKQHNGRVVIVVQVHLEHNGRNDTRHYVVIIEVDNGHIRIKTMVDK	1.16
DEKDKDVADELRKAYHTGDHNRLREMVDKDVKFQVGDQDYHGRETFMKLNHTERNEIRIEIQSIRVHVHNGRVTVKQVVVREHNGRPTRMQQVLTIDAHNGKIKKMFIKDDQ	0.069
DEKDLEELAKDVIEAYQDGDEQRLRNNFDKDARWHIGDKTFHGRERNVRHLVEEAKRVDHIHVTTMEVQGNTVRMVLRMNHNGKSDHVDIQITFENGRAQSVTVTKP	0.369
DEKDMEQQDRVFRHGNEKKLEDLVDEDARVEVGNRRYHGREQVVRFFQQQVKQVDHRTIRSVKLTGDKFDAVLQVVINGQTYTYRFKAKVHNGKVKVLRVEFTDPQREKEFEKQLD	0.206
DEKDNKTLHKIIRHGDWKKLQDLADENASVDIGNKKFHGRREVSKAMERLREKVDSVQYHSITVEGNSARIVYNLEVNGNRVKVQMKFSMHNGHLQEVVIRATNEEDSKKIDKQLG	0.724
DEKDNKTYADKVAEMLKHNDPRTARELVDPNAKVQVGDSEVHGREQIENLIKTWNEQVDHVEIKKYRVEGDKVEITFVAESNGKRTHFKVVLKVRNGRATHMTIKRK	0.157
DEKDQEQILRELAEIMKSGDEHEMENLADENVKVKIGDKTLKGKEQFRHQLKRERDRVDHLKILDMEAQGDRFIIRWQEEFNGQTRRMQVDIHIKNGKIKSAEYRHQ	0.579
DEKDQTRKAEKAARIFQHGNPDDVREMADEDVKVQIGDNRINGRHNLDTEVKELRDRVDDAKIEDFRASGNTIVLHIRFVVDGVDVHITIHINYHNGKAKRIDVKYTDERQKRRQDS	0.739

Source: the NTF2 design screens of Basanta et al. (2020)
